Results from patent publication US20250034594A1, “RNA-GUIDED GENOME RECOMBINEERING AT KILOBASE SCALE” (THE BOARD OF TRUSTEES OF THE LELAND STANFORD JUNIOR …, priority 2021, published 2025).

Assays:
Assay type in all cases: cell-based
[1] = system: gene editing with Cas9; assay: Screen of 322 new SSAP proteins, gene editing activity with Cas9 (Table 5); set-up: Cas9 with SSAP activity: scale not given here
Outline: (§1)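 Editing screen of 322 newly identified, synthesized SSAPs, each co-used with Cas9 and with dCas9.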

[2] = system: gene editing with dCas9; assay: Screen of 322 new SSAP proteins, gene editing activity with dCas9 (Table 5); set-up: dCas9 with SSAP activity: scale not given here
Outline: as §1

[3] = system: gene editing with Cas9 and dCas9; assay: Screen of 322 new SSAP proteins, activity across all experiments (Cas9 and dCas9, Table 5); set-up: scale not given here
Outline: as §1

Molecule	Cas9 with SSAP activity [1]	Cas9 with SSAP activity (normalized) [1]	dCas9 with SSAP activity [2]	dCas9 with SSAP activity (normalized) [2]	Activity across all experiments [3]
SSAP_103: SEQ ID NO: 272; Zymobacter palmae (protein, listed as Zymobacter palmae) TNTVQQQAPQQDQLAQQLQQASGNTPQKKPMPSTIQGMLKDDRFKTQIARALPKHVTPERIMRIALTEINKTPKLKECDPIGLFGSIVQSAQLGLELGGALGHAYLVPYGKQAQFIIGYRGMIDLARRSGQMVSLQAHTVHENDEFNFEYGLNENLRHVPARGERGPMIAVYAVAKLVGGGHQIEVMWKEDVDAVRKSSKAGGSGPWRDHYEEMAKKTAIRRLFKYLPVSVEMQRAVSLDEQAEEGVQDNNVFDGDYTVAEH	−0.682	−0.190	−4.540	−0.705	−2.611
SSAP_65: SEQ ID NO: 234 (protein) TQDLATAIADQQPAQRRTAFDLVESMRGELHKALPEHASIDNFLRLALTELKMNPQLGNCSGESLLGALMTAARVGLEVGGPLGQFYLTPRRLKRDGWAVVPIVGYRGLITLARRAGVGQVNAVVVHEGDTFREGASSERGFFFDWEPAVERGKPVGALAAARLAGGDVQHRYLSLAEVHERRDRGGFKDGSNSPWATDYDAMVRKTALRALVPLLPQSTALSFAVQADEQVQRYDAGDIDIPALDETDTEDTK	0.198	0.190	−4.569	−0.746	−2.185
SSAP_291: SEQ ID NO: 460; Nocardia pseudobrasiliensis (protein, listed as Nocardia pseudobrasiliensis) SSIANAANASELTPASIVNRYRDDIAAVLPPKLQARIDRWLRLAIGAVNSNADLVDRVRADQGASMMQTLMKCAALGHEPGSGLFHLVPKGPRIEGWEDYKGVLQRIDRSGVYARVVVEVVHANDDYAYDPNLDDRPQHKRAAADRGEPVSAYAYAVYPNGAVTAVAEATPELIAASKAKARGADNASSPWRAPGAPMHRKVAIRQLEKFVATSAEDMREVAVRNAAPDVEDAPADYYQEP	−4.531	−1.341	−4.458	−1.272	−4.494
SSAP_313: SEQ ID NO: 482; Pedobacter nototheniae (protein, listed as Pedobacter nototheniae) STEQSQQQTAARVPAKFQEGTVDSILKRVSDFQNTGELVLPANYIPENAVRAAWLMLMETTDRNDKPAIEVCTKESIANAFLEMVTKGLSVVKKQCYFVVYGNKLSLEDSYIGKIAIAKREAGVKEVNAVTIYEGDIFKYENDIETGRKRILEHKQELKNINPDKIVGA	−0.432	−0.643	−4.259	−1.301	−2.345
SSAP_14: SEQ ID NO: 183 (protein) TTALQTLTNKLAERFEMGDGSGLVETLKSSAFAGATVSDAQMIALLVIANQYQLNPWTKEIYAFPGGNGGLTPIVGVDGWVRIINREPQYDGMEFHFTDDYSACTCTIYRKDRSKPIVVTEFMGECKKSSPAWNSHPKRMLRHKAMIQCARLAFGFTGIYDQDEAERIAENEKPPKNITPQNNVVETTAVELISEEQLSQIRQLMQVTGTEEAKILAYIGVQALNQIPKSQAEAVIKKLNLTLDKQNAEKADNGESVGEEIPL	−0.331	−0.351	−4.263	−0.702	−2.297
SSAP_164: SEQ ID NO: 333; Clostridium fimetarium (protein, listed as Clostridium fimetarium) ETIDIKQELASQAQTDSKKEVKLTKAMSIAEMIKAMMPEIKRALPSMITPERFTRIALSALNNTPELQACTPMSFISALLNAAQLGLEINSPLGHAYLIPYKNKGVLECQFQIGYLGLIALAYRNELMQTIQAQCVYENDEFLYEYGLNPKLVHRPATSDRGEPVFFYGLFKMINSGFGFCVMSKQEMDEFARTYSKGLASSFSPWKTSYNEMAKKTVIKQALKYAPIKTDFQKALSTDESIKYAISEDMTEAVNEIVSQNTEVA	−2.221	−0.998	−4.310	−0.557	−3.266
SSAP_82: SEQ ID NO: 251 (protein) ENEVMTQDQAYEVASPFGSSENFQKLFDIGKMFASSSLVPDRYRGKPMDCTIAVDMANRMGVSPMMVMQQLYVVKGNPQWSGQACMSLIRGSSEYKNVRPVYTGKKGEDSWGCYIEAEKKKTGEIVKGTEVTIAMAKAEGWYSKKDKYGNETSKWQTMPELMLAYRAAAFFARVYIPNALMGCAVEGEAEDIMKRAITAEDPFKEDAK	−4.284	−0.776	−4.498	−0.873	−4.391
SSAP_277: SEQ ID NO: 446; Nocardia terpenica (protein, listed as Nocardia terpenica) SSIAAAAESAEVTPASIINKYRDDIATVLPPKLRERIDRWIRLAIGAVNSNPELISRVRADQGASMMQALMKCAALGHEPGSGLFHLVPKGSRIEGWEDYKGILQRIDRSGVYARTVIGVVYANDEYSYDQNVDERPRHVRATGDRGEPISSYAYAVYPSGAITTVAEATPEQIASSKSKARGADNAASPWRAPGAPMHRKVAVRLLEKHVATSAEDRREPISRSAANDVVIDATADYYQEP	−1.480	−0.437	−4.435	−0.734	−2.958
SSAP_232: SEQ ID NO: 401; Lactococcus fujiensis JCM 16395 (protein, listed as Lactococcus fujiensis) KSAPVQARFQEVLGKKSSGFVSSLLTVVNNNNLLKRATPDSIMTAAMKAATLDLPIEPSLGFAYIIPYGQEAQFQIGYKGLIQLALRSGQITGLNSGIVYKSQFISYDPLFEELEIDFMQPEDEVVGYFASMKLSNGFMKVVYWTKARVENHKKRFSKAGAKSPWATDFDAMAQKTVLKAMISKFAPLSQEMQIAVIADNESETLEPKDVTPEQPLISIDEPKENENSQSQISIPEDQAPQQENEEFVEELFPVGQA	−1.056	−0.259	−4.457	−0.721	−2.757
SSAP_272: SEQ ID NO: 441; Clostridium cadaveris (protein, listed as Clostridium cadaveris) ATNSSLKNQLSKKENVTIGNTMQGLLNNPKMKKRFEEILDKKAPQYMSSILNLYNGDTSLQKCEPMSVLSSSMIAATMDLPVDKNLGYAWIVPYKNKAQFQMGYKGYIQLALRTGQYKHINAIEIHEGELVNWNPLTEELEIDFTKKESDKIIGYAGYFELLNGFKKSTYWTKTQIENHRKKFSKSDYGWNKDFDAMAIKTVIRNMLSKWGILSIEMQNAYTADENIIKDSFIDDSENVSANIEDLVEADYTVNQDSLESKEEFEGTPLE	0.254	0.626	0.863	0.407	0.558
SSAP_72: SEQ ID NO: 241 (protein) ATNSSLKNQLSKKENVTIGNTMQGLLNNPKMKKRFEEILDKKAPQYMSSILNLYNGDTSLQKCEPMSVLSSSMIAATMDLPVDKNLGYAWIVPYKNKAQFQMGYKGYIQLALRTGQYKHINAIEIHEGELVNWNPLTEELEIDFTKKESDKIIGYAGYFELLNGFKKSTYWTKTQIENHRKKFSKSDYGWNKDFDAMAIKTVIRNMLSKWGILSIEMQNAYTADENIIKDSFIDDSENVSANIEDLVEADYTVNQDSLESKEEFEGTPLE	0.397	0.895	0.705	1.131	0.551
SSAP_250: SEQ ID NO: 419; Streptococcus pseudoporcinus (protein, listed as Streptococcus pseudoporcinus) ANQLTVVNTLQSDAVKEKFEAVMGEKANGFVSSVLSVVTNNNLLAKADFNSVYTSAMKAAVLDLPVEPSLGMAYIVPYKGKAQFQIGYKGLIQLAQRSGKVTKLNSGKIYKGQFKSYNALSEELDIDDIYTPKEDEEVVGYFGYMKLSNGFEKITYWTKERVEKHGKKYSQSYDSKFSPWQTNFDAMAEKTVLKSILSTYAPLTIEMQNANDFDNGKNTGIEPLEVKDVTPENDNESLLSDLLEDEPSVDAETGEIMENTELDLDYGSINAK	−4.531	−1.341	−4.273	−1.117	−4.402
SSAP_58: SEQ ID NO: 227; Pirellula sp. SH-Sr6A (protein, listed as Pirellula sp.) SEATKEAKPETAIAKKPNGIKDWLKSDALKTQIASVAPKHMAPERVMRIALNAVSRTPKLADCTPESFMRCLLDLSSWGLEPDGRHAHLIPYGTECTLVLDYKGLVTLAYRSGWVKKIHADVVFEGDIFVYSLGTVCQHIPWEFRDDANKPEHKGHFRAAYCVVTMADGIEKHEVMTASEIDAIKAKSRSGNSGPWKDHYTEMAKKTVYRRASKWLPLSPEQADAMERDDDRIIDAVSVAVTQRLSKAAMPLIGANETGDTE	−1.710	−0.437	−4.326	−0.647	−3.018
